Test results as given in patent US10004812B2 (priority 2014, dated 2018).
Read-outs that look alike come from different tables or passages of the source. *1 amine or outer side, *2 acyl side, *3 side chain or, on linkers, in order; H or OH if unused. Where a SMILES comes first, the peptide text is derived from it. [ ]: non-standard residue; d: D form. The star is where a group is joined. ξ: configuration not given here. NPrTuv(OPr) = CCCO[C@H](C[C@H](C(C)C)N(CCC)[*:1])c1nc(C(=O)[*:2])cs1; Dolaproine = CO[C@@H]([C@@H]1CCCN1)[C@@H](C)C(=O)O; Hexanoyl(6-maleimido) = O=C1C=CC(=O)N1CCCCCC(=O)*; X1 = COC(=O)[C@@H](C)C[C@H](Cc1ccc(O)cc1)N*; Dil = CC[C@H](C)[C@H](NC)[C@@H](CC(=O)O)OC; PABC = O=C(OCc1ccc(N[*:1])cc1)[*:2]; X2 = C[C@@H](N*)[C@@H](O)c1ccccc1; Cit = NC(=O)NCCC[C@H](N)C(=O)O; NMeV = CN[C@H](C(=O)O)C(C)C; ξIle = CC[C@H](C)C(N)C(=O)O; dPip = O=C(O)[C@H]1CCCCN1

Assays:
HT1080 cells [1] = assay: Cell proliferation arrest on HT1080 cells (CPA; crystal violet); assay type: cell-based
Procedure: Microtubule inhibition activity and cytotoxic activity of each new derivative were evaluated through tubulin polymerization inhibition assay (TPI; Tubulin Polymerization assay kit; Cytoskeleton, Cat. #BKO11P), and cell proliferation arrest on HT1080 cells (CPA; crystal violet).

[2] = system: rabbit reticulocyte cell-free lysates
HT1080-FAP cell line = assay type: cell-based; details: crystal violet viability, FIG. 6, read-out: cytotoxic activity IC50
[3] = Table 3, published data; cited from earlier work
HT1080 cells [4] = assay: Internalization by indirect immunofluorescence confocal microscopy; assay type: cell-based, human
Procedure: (§1) Purified proteins A5-IgG and mE12-IgG were characterized by SDS-PAGE and size exclusion chromatography. Bioactivity was analyzed by ELISA, using recombinant mouse/human ENG and detection of bound antibodies with HRP-conjugated anti-human IgG antibodies. Cell binding was analyzed by flow cytometry, using ENG-positive HT1080 and ENG expressing mouse eEnd2. Melting points were determined by dynamic light scattering using a zetasizer nano. Affinities were determined by QCM using an Attana A100. Internalization study was performed by indirect immunofluorescence confocal microscopy on permeabilized cells, detecting bound and internalized antibodies with a FITC-labeled secondary antibody.
Preliminary internalization studies indicate rapid cellular internalization for A5-IgG against cells expressing human ENG. Indeed within 30 min, almost 90% of the A5-IgG is found within HT1080 cells.

HT1080 cells [5] = assay: Flow cytometry cell binding, ENG-positive HT1080 cells; parameters: species or system human; details: FIG. 3b
Procedure: Purified anti-muENG mE12 and anti-huENG A5 antibodies were analyzed in ELISA for binding to recombinant ENG and using flow cytometry analysis (FACS).
as §1

[6] = Melting point by dynamic light scattering (zetasizer nano); assay type: physicochemical; details: thermal stability
Procedure: as §1

recombinant human ENG = target: T1, recombinant human ENG (Homo sapiens, UniProt P17813); assay: ELISA binding to immobilized recombinant human ENG; details: FIG. 3a
T1 sequence (P17813 whole entry, looked up): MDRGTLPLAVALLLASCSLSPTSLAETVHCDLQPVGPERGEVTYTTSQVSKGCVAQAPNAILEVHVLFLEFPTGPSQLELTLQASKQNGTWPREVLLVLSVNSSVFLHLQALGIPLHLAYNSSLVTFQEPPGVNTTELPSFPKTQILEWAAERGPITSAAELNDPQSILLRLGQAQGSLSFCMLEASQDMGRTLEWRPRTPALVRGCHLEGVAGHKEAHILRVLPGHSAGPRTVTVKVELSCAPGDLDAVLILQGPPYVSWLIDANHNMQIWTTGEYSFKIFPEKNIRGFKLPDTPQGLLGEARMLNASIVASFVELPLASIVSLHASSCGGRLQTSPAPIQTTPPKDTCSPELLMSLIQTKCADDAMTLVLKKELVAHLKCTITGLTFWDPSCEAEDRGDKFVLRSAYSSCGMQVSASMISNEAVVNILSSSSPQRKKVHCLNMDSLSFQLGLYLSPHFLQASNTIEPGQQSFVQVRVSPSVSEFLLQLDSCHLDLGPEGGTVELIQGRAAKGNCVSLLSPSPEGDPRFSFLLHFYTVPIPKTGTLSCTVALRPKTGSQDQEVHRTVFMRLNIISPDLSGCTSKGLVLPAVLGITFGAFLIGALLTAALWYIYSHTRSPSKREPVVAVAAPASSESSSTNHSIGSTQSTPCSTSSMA
Procedure: Bioactivity was analyzed by ELISA using recombinant ENG and detection of bound antibodies with HRP-conjugated anti-human IgG antibodies.

[7] = system: PAXF-736 pancreas cancer xenograft; assay: Anti-tumoral effect in patient-derived xenograft mouse model for pancreas cancer (PAXF-736); assay type: in vivo
Procedure: Both types of immunoconjugates, recNgA- and cytolysin-conjugates, were evaluated for their anti-tumoral effect in vivo in a patient-derived xenograft mouse model for pancreas cancer (PAXF-736), previously selected for antigen expression.
Immunoconjugates were then administrated once a week intraperitoneally over 5 weeks. Tumor volume and body weight were measured every 2-3 days. Vehicle-treated and Gemcitabine-treated (150 mg/kg) PDX mice were used as negative and positive control groups, respectively.

Molecule CCCO[C@H](C[C@H](C(C)C)N(CCC)C(=O)[C@@H](NC(=O)C(C(C)C(=O)OCc1ccc(NC(=O)[C@H](CCCNC(N)=O)NC(=O)[C@@H](NC(=O)CCCCCN2C(=O)C=CC2=O)C(C)C)cc1)[C@@H](C)CC)[C@@H](C)CC)c1nc(C(=O)N[C@@H](Cc2ccccc2)C[C@H](C)C(=O)O)cs1 (stereo partly shown) [TAM551] has an IC50 (HT1080 cells [1]; Homo sapiens, HT-1080) of 90 nM.

CC[C@H](C)[C@@H]([C@@H](CC(=O)N1CCC[C@H]1[C@H](OC)[C@@H](C)C(=O)N[C@H](C)[C@@H](O)c1ccccc1)OC)N(C)C(=O)[C@@H](NC(=O)[C@@H](NC)C(C)C)C(C)C [MMAE, reference compound] (H-[NMeV]V[Dil][Dolaproine]-X2) gave an IC50 (HT1080 cells [1]) of 0.1 to 0.6 nM.

In the case of “Nigrin b: native (WT) Nigrin b, type 2 ribosome-inactivating protein with A and B chains”, the IC50 [2] is listed as roughly 0.0025 nM, the IC50 (HT1080-FAP cell line) is listed as roughly 20 nM and the “Mouse LD50” value [3] is listed as 12,000.00 μgkg^−1.

In the case of CCCO[C@H](C[C@H](C(C)C)N(CCC)C(=O)[C@@H](NC(=O)[C@H]1CCCCN1C)[C@@H](C)CC)c1nc(C(=O)N[C@@H](Cc2ccc(O)cc2)C[C@H](C)C(=O)NNC(=O)OCc2ccc(NC(=O)[C@@H](CCCNC(N)=O)NC(=O)[C@H](NC(=O)CCCCCN3C(=O)C=CC3=O)C(C)C)cc2)cs1 [TAM471, Maleimido-Val-Cit-PABOCO-Tubulysin/Cytolysin-TAM470], the IC50 (HT1080 cells [1]; Homo sapiens, HT-1080) is reported as 17 to 42 nM.

CC[C@H](C)[C@H](NC(=O)[C@H]1CCCCN1C)C(=O)N(COC(=O)CC(C)C)[C@H](C[C@@H](OC(C)=O)c1nc(C(=O)N[C@@H](Cc2ccc(O)cc2)C[C@H](C)C(=O)O)cs1)C(C)C [Tubulysin A, reference compound] showed an IC50 (HT1080 cells [1]) of 0.04 to 0.2 nM.

With CCCO[C@H](C[C@H](C(C)C)N(CCC)C(=O)C(NC(=O)[C@H]1CCCCN1C(=O)OCc1ccc(NC(=O)[C@H](CCCNC(N)=O)NC(=O)[C@@H](NC(=O)CCCCCN2C(=O)C=CC2=O)C(C)C)cc1)[C@@H](C)CC)c1nc(C(=O)N[C@@H](Cc2ccc(O)cc2)C[C@H](C)C(=O)OC)cs1 (stereo partly drawn) [TAM467, Maleimido-Val-Cit-PABOCO-Tubulysin/Cytolysin-TAM461] ({Hexanoyl(6-maleimido)}-V[Cit][PABC][dPip][ξIle][NPrTuv(OPr)]-X1) the IC50 (HT1080 cells [1]; Homo sapiens, HT-1080) was 230 to 420 nM.

For CCCO[C@H](C[C@H](C(C)C)N(CCC)C(=O)[C@@H](NC(=O)[C@H]1CCCCN1C)[C@@H](C)CC)c1nc(C(=O)N[C@@H](Cc2ccc(O)cc2)C[C@H](C)C(=O)NNC(=O)OCCOCCOCCOCCNC(=O)CCCCCN2C(=O)C=CC2=O)cs1 [TAM552], the IC50 (HT1080 cells [1]; Homo sapiens, HT-1080) was 10 nM.

B1: A5-IgG1: human anti-human Endoglin IgG1; heavy chain SEQ ID NO: 3, light chain SEQ ID NO: 4; ADCC/CDC deficient (antibody)
heavy: EVQLLESGGGLVQPGGSLRLSCAASGFTFSSYAMSWVRQAPGKGLEWVSAIYGSDGDTTYADSVKGRFTISRDNSKNTLYLQMNSLRAEDTAVYYCARVFYTAGFDYWGQGTLVTVSSASTKGPSVFPLAPSSKSTSGGTAALGCLVKDYFPEPVTVSWNSGALTSGVHTFPAVLQSSGLYSLSSVVTVPSSSLGTQTYICNVNHKPSNTKVDKKVEPKSCDKTHTCPPCPAPPVAGPSVFLFPPKPKDTLMISRTPEVTCVVVDVSHEDPEVKFNWYVDGVEVHNAKTKPREEQYNSTYRVVSVLTVLHQDWLNGKEYKCKVSNKGLPSSIEKTISKAKGQPREPQVYTLPPSRDELTKNQVSLTCLVKGFYPSDIAVEWESNGQPENNYKTTPPVLDSDGSFFLYSKLTVDKSRWQQGNVFSCSVMHEALHNHYTQKSLSLSPGK
light: DIELTQSPSSLSASVGDRVTITCRASQSISSSLNWYQQKPGKAPKLLIYAASSLQSGVPSRFSGSGSGTDFTLTISSLQPEDFATYYCQQAPAKPPTFGQGTKLEIKRTVAAPSVFIFPPSDEQLKSGTASVVCLLNNFYPREAKVQWKVDNALQSGNSQESVTEQDSKDSTYSLSSTLTLSKADYEKHKVYACEVTHQGLSSPVTKSFNRGEC
modifications: Synthetic sequence A5-IgG1-HC - without signal sequence; Synthetic sequence A5-IgG1-LC - without signal sequence
With B1 the “internalization (time)” value (HT1080 cells [4]; HT1080) was 30 to 60 min, the “share of antibody found within cells” value (HT1080 cells [4]; HT1080 cells, within 30 min, preliminary) was roughly 90% and the “binding to human ENG by flow cytometry, in words” value (HT1080 cells [5]) was “concentration-dependent binding”. For the same molecule, the “Tm (DLS)” value [6] was 72 °C and the “binding to human ENG by ELISA, in words” value (recombinant human ENG) was “concentration-dependent binding”.

B2: OMTX505: recNgA immunoconjugate tested in vivo (conjugate)
heavy: QVQLVQSGAEVKKPGASVKVSCKASGYTFTENIIHWVRQAPGQGLEWMGWFHPGSGSIKYNEKFKDRVTMTADTSTSTVYMELSSLRSEDTAVYYCARHGGTGRGAMDYWGQGTLVTVSSASTKGPSVFPLAPSSKSTSGGTAALGCLVKDYFPEPVTVSWNSGALTSGVHTFPAVLQSSGLYSLSSVVTVPSSSLGTQTYICNVNHKPSNTKVDKKVEPKSCDKTHTCPPCPAPPVAGPSVFLFPPKPKDTLMISRTPEVTCVVVDVSHEDPEVKFNWYVDGVEVHNAKTKPREEQYNSTYRVVSVLTVLHQDWLNGKEYKCKVSNKGLPSSIEKTISKAKGQPREPQVYTLPPSRDELTKNQVSLTCLVKGFYPSDIAVEWESNGQPENNYKTTPPVLDSDGSFFLYSKLTVDKSRWQQGNVFSCSVMHEALHNHYTQKSLSLSPGK
light: DIQMTQSPSSLSASVGDRVTITCRASKSVSTSAYSYMHWYQQKPGKAPKLLIYLASNLESGVPSRFSGSGSGTDFTLTISSLQPEDFATYYCQHSRELPYTFGQGTKLEIKRTVAAPSVFIFPPSDEQLKSGTASVVCLLNNFYPREAKVQWKVDNALQSGNSQESVTEQDSKDSTYSLSSTLTLSKADYEKHKVYACEVTHQGLSSPVTKSFNRGEC
chain: MIDYPSVSFNLDGAKSATYRDFLSNLRKTVATGTYEVNGLPVLRRESEVQVKSRFVLVPLTNYNGNTVTLAVDVTNLYVVAFSGNANSYFFKDATEVQKSNLFVGTKQNTLSFTGNYDNLETAANTRRESIELGPSPLDGAITSLYHGDSVARSLLVVIQMVSEAARFRYIEQEVRRSLQQATSFTPNALMLSMENNWSSMSLEIQQAGNNVSPFFGTVQLLNYDHTHRLVDNFEELYKITGIAILLFRCSSPSND
With B2 the “in vivo anti-tumoral efficacy” value ([7]; 0.5 mg/kg, once a week i.p. over 5 weeks, single agent) was 60% and the tumor growth inhibition ([7]; combined with Gemcitabine, tumor regression) was 100%.
